# Reference: patent US20050287527
substance,measurement,setting,value
human α-thrombin,proteolytic cleavage of the peptide by thrombin,GLDPRHL,proteolytically cleaved after the arginine residues in the presence of the human thrombin
same,proteolytic cleavage of the peptide by thrombin,GFSARHL,proteolytically cleaved after the arginine residues in the presence of the human thrombin
same,proteolytic cleavage of the peptide by thrombin,GVDPRHL,proteolytically cleaved after the arginine residues in the presence of the human thrombin
same,proteolytic cleavage of the peptide by thrombin,GPNPRHL,proteolytically cleaved after the arginine residues in the presence of the human thrombin
same,proteolytic cleavage of the peptide by thrombin,GFNPRHL,proteolytically cleaved after the arginine residues in the presence of the human thrombin
